Test results from PMC8102632.

Assays:
[1] = target: Thiomicrospira Cas6-RT-Cas1 fusion protein (Thiomicrospira); experiment: cryo-EM structure; 50 uM Cas6-RT-Cas1, 50 uM Cas2 and 12.5 uM half-site DNA substrate dialysed into 10 mM HEPES pH 7.5, 5 mM EDTA, 500 mM KCl, 0.5 mM TCEP, 0.5% glycerol; purified over Superose 6 Increase; single particle cryo-EM; no density seen for the DNA
[2] = target: Thiomicrospira Cas2 (Thiomicrospira); experiment: as above
[3] = target: Thiomicrospira Cas6-RT-Cas1 RT-K574A mutant (Thiomicrospira)

## Thiomicrospira Cas6-RT-Cas1 fusion protein (enzyme)
[1]
  stoichiometry N: 2

## Thiomicrospira Cas2 (natural protein)
[2]
  stoichiometry N: 2

## Thiomicrospira Cas6-RT-Cas1 RT-K574A mutant (enzyme)
[3]
  ligation of ssRNA protospacer into pCRISPR by the mutant Cas6-RT-Cas1—Cas2 complex relative to WT (RT-helix of one protomer with Cas1a of another): > 80 % reduction
